Article PMC6303327, “A structural and dynamic model for the assembly of Replication Protein A on single-stranded DNA”

What was measured:
DBD-A S178D = DBD-A S178D (Saccharomyces cerevisiae, UniProt P22336 178-294, S178D); experiment: MST; S178D did not affect dT7 binding; EMSA: 20 mM Tris pH 7.5, 150 mM NaCl, 10 mM MgCl2, 0.01% Tween-20, room temperature, 30 min; MST: MST-binding buffer (composition not in material), room temperature, 20 min; FRET: reaction buffer not given, 10 nM DNA; settings: protein: recombinant; tags: GST removed by 3C cleavage; label: Cy5 (5')
DBD-A (Rfa1) = DBD-A (Rfa1) (Saccharomyces cerevisiae, UniProt P22336 178-294); experiment: MST; EC50; EMSA: 20 mM Tris pH 7.5, 150 mM NaCl, 10 mM MgCl2, 0.01% Tween-20, room temperature, 30 min; MST: MST-binding buffer (composition not in material), room temperature, 20 min; FRET: reaction buffer not given, 10 nM DNA; settings: protein: recombinant; tags: GST removed by 3C cleavage; label: Cy5 (5')
[1] = target: T1, ScRPA (Rfa1-Rfa2-Rfa3 heterotrimer, wild type) (Saccharomyces cerevisiae, UniProt P22336;P26754;P26755 1-621;1-273;1-122); experiment: FRET titration; 10 nM DNA; Hill fit; panel in Supplementary Fig. 14 gives 38.7 ± 0.8; EMSA: 20 mM Tris pH 7.5, 150 mM NaCl, 10 mM MgCl2, 0.01% Tween-20, room temperature, 30 min; MST: MST-binding buffer (composition not in material), room temperature, 20 min; FRET: reaction buffer not given, 10 nM DNA; settings: protein: recombinant; tags: TEV-cleavable His6 on Rfa1; copies: 1;1;1; label: 5' Cy5, Cy3 after nt 29
[2] = target: T1, ScRPA (Rfa1-Rfa2-Rfa3 heterotrimer, …); experiment: FRET titration; stoichiometric, X0 = 8.7 ± 0.3 nM at 10 nM DNA (1:1); EMSA: 20 mM Tris pH 7.5, 150 mM NaCl, 10 mM MgCl2, 0.01% Tween-20, room temperature, 30 min; MST: MST-binding buffer (composition not in material), room temperature, 20 min; FRET: reaction buffer not given, 10 nM DNA; settings: protein: recombinant; tags: TEV-cleavable His6 on Rfa1; copies: 1;1;1; label: 5' Cy5, 3' Cy3
[3] = target: T1, ScRPA (Rfa1-Rfa2-Rfa3 heterotrimer, …); experiment: MST; apparent EC50; Hill slope 0.9 ± 0.1; EMSA: 20 mM Tris pH 7.5, 150 mM NaCl, 10 mM MgCl2, 0.01% Tween-20, room temperature, 30 min; MST: MST-binding buffer (composition not in material), room temperature, 20 min; FRET: reaction buffer not given, 10 nM DNA; settings: protein: recombinant; tags: TEV-cleavable His6 on Rfa1; copies: 1;1;1; label: 5' Cy5

T1 sequence (P22336 whole entry, chain 1 of 3): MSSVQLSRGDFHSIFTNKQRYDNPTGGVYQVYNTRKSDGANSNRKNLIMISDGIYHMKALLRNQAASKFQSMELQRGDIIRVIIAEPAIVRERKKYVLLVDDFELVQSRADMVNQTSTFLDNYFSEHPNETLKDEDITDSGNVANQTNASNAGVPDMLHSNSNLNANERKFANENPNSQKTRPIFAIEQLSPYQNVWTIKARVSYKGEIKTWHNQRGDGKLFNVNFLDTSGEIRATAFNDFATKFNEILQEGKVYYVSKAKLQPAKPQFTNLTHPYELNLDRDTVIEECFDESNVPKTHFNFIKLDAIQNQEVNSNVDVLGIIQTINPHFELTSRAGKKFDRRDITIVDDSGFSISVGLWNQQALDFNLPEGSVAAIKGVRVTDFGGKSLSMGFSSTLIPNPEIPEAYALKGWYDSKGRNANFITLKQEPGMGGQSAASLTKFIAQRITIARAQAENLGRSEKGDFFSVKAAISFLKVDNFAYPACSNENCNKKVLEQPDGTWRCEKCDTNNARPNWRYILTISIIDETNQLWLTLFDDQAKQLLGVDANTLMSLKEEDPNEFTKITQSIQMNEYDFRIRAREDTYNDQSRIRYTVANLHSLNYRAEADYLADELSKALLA
T1 sequence (P26754 whole entry, chain 2 of 3): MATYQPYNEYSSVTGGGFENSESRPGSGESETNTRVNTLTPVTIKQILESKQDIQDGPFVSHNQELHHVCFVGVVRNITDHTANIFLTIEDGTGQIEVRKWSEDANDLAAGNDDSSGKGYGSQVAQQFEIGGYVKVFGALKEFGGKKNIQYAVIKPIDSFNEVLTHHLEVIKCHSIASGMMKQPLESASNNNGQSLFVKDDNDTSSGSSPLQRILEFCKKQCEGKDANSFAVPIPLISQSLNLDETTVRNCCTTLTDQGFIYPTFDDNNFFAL
T1 sequence (P26755 whole entry, chain 3 of 3): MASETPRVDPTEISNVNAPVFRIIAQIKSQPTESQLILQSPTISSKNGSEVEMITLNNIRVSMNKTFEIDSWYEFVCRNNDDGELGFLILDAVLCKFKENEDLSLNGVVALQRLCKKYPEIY
Chain of DBD-A S178D (P22336 178-294 S178D): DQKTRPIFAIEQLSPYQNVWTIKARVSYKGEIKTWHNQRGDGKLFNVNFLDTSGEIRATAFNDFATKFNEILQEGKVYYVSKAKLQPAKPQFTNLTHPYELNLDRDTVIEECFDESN
Chain of DBD-A (Rfa1) (P22336 178-294): as the sequence (P22336 178-294 S178D) above, with D1S counted along it

In the case of TTTTTTT (ssDNA) [dT7 (Cy5)], the binding result (DBD-A S178D) is reported as “binds” and the “apparent K (half saturation)” value (DBD-A (Rfa1)) is reported as 309 ± 18 nM.

B1: dT90(1-30) (ssDNA)
DNA: TTTTTTTTTTTTTTTTTTTTTTTTTTTTTTTTTTTTTTTTTTTTTTTTTTTTTTTTTTTTTTTTTTTTTTTTTTTTTTTTTTTTTTTTTT
modifications: internal Cy3 in backbone
Work on B1 yielded a Kd [1] of 39.3 ± 0.9 nM.

TTTTTTTTTTTTTTTTTTTTTTTTTTTTTT (ssDNA) [dT30 (FRET)]: binds [2].

B2: dT100 (Cy5) (ssDNA)
DNA: TTTTTTTTTTTTTTTTTTTTTTTTTTTTTTTTTTTTTTTTTTTTTTTTTTTTTTTTTTTTTTTTTTTTTTTTTTTTTTTTTTTTTTTTTTTTTTTTTTTT
For B2, the “apparent K (half saturation)” value [3] was roughly 20 nM.
